Drawing on publication PMC3272369, this text covers Kd for one substance.

Holding throughout (assay): SPR
(SPR reads the build-up and loss of mass on a sensor chip optically.)

In test [1] the target is complement factor H, allotypic variant Ile62 (human) (UniProt P08603).
Test [2] shares this target. The source holds these as a separate data set.
Test [3] concerns the target complement factor H, allotypic variant Val62 (human) (UniProt P08603).

pKd: −log10 of the molar value. Where two headings read alike, the source gives them in different places.

Broadly, the pKd is the Kd on a negative log10 scale, so that one unit is a factor of ten. Read a low pKd as a high Kd. As for “C3b (from UniProt P01024 23-667; P01024 749-1663) (domain or fragment)”, the pKd in test [1] is 5.98; in test [2], 5.99; in test [3], 5.88.
